How the values were obtained:
U2OS TNS3KO cells [1] = test: α5 integrin-positive FBs, rescue of TNS3KO cells; type: cell-based, human; details: vs mCh-TNS3-WT; FN-coated, overnight; SNAKA51 antibody; n = 37 (WT) and 47 (L702E) cells
Method: (§1) Cells were fixed in 4% paraformaldehyde (PFA, Sigma-Aldrich), which had been prewarmed to 37°C for 15 min before being washed three times with PBS. For immunofluorescence staining, cells were permeabilized with 0.5% Triton X-100 (Sigma-Aldrich) at room temperature for 5 min before being washed three times with PBS. Blebbistatin (Tocris Bioscience) was diluted in dimethyl sulfoxide (Sigma-Aldrich) and used at a final concentration of 50 μM. […]
(§2) Analysis of cell adhesion sites, FN fibrils, and LLPS condensates was performed using FIJI/ImageJ (version 1.54f) software ([Schindelin et al., 2012]). […] Prior to adhesion quantification, the images were background-subtracted using a rolling ball algorithm, followed by thresholding of adhesion sites and Analyse Particles functions in FIJI/ImageJ to quantify adhesions. Adhesion sites with sizes between 0.4 and 10 μm^2 were counted, except for adhesions in blebbistatin-treated cells, which were counted with sizes between 0.2 and 4 μm^2. […]

TNS3KO cells = test: FN fibrils, rescue of TNS3KO cells; type: cell-based, human; details: vs TNS3-WT; IST9 antibody; 40 × 40 μm squares; n = 56 (WT) and 54 (L702E) cells
Method: as §1
To analyze the FN fibrils, the images were background-subtracted (rolling ball), before 40 × 40 μm square boxes were applied for particle analysis to count FN fibrils larger than 0.2 μm^2. The FN coverage was calculated by dividing the area covered by FN fibrils by the total area of the box (1,600 μm^2).

U2OS TNS3KO cells [2] = test: vinculin-positive FAs on VN; type: cell-based, human; details: TNS3-WT vs TNS3-L702E; VN-coated, serum-free; n = 74 (WT) and 51 (L702E) cells
Method: as §1, §2

[3] = test system: active β1 integrin, U2OS TNS3KO cells; test: β1 integrin-positive adhesions, U2OS TNS3KO cells; type: cell-based, human; details: vs TNS3-WT; FN-coated; 9EG7
Method: as §1, §2

U2OS TNS3KO cells [4] = test: adhesion stability under blebbistatin, U2OS TNS3KO cells; type: cell-based, human; details: blebbistatin 50 µM
Method: Cells were fixed in 4% paraformaldehyde (PFA, Sigma-Aldrich), which had been prewarmed to 37°C for 15 min before being washed three times with PBS. For immunofluorescence staining, cells were permeabilized with 0.5% Triton X-100 (Sigma-Aldrich) at room temperature for 5 min before being washed three times with PBS. Blebbistatin (Tocris Bioscience) was diluted in dimethyl sulfoxide (Sigma-Aldrich) and used at a final concentration of 50 μM. The following primary antibodies were diluted in 1% bovine serum albumin (BSA, Sigma-Aldrich): mouse anti-α5 integrin (SNAKA51, 1:100, NBP2-50146; Novus Biologicals), rat anti-β1 integrin (9EG7, 1:200; 553715; BD Biosciences), mouse anti-FN (IST-9, 1:100, ab6328; Abcam), rabbit anti-tensin3 (1:200, HPA055338; Atlas), mouse anti-EEA1 (1:500, 68065-1-IG; Proteintech), mouse anti-LAMP1 (1:200, ab320851; Abcam), mouse anti-paxillin (349, 1:400, mab3060; Sigma-Aldrich), rabbit anti-talin1 (1:200, 82856-4-RR; Proteintech), mouse anti-vinculin (hVin1, 1:500, V9264; Sigma-Aldrich), rabbit anti-KANK2 (1:100, HPA015643; Sigma-Aldrich), rabbit anti-kindlin2 (1:100, 11453-1-AP; Proteintech), rabbit anti-GIT1 (1:200, 26247-1-AP; Proteintech), mouse anti-phosphotyrosine (4G10, 1:200, 05-321X; Sigma-Aldrich), rabbit anti-G3BP1 (1:600, 13057-2-AP; Proteintech), rabbit anti-TDP43 (1:400, 10782-2-AP; Proteintech), and rabbit anti-GIGYF1 (1:400, ab121784; Abcam). […]
as §2

NIH3T3 cells [5] = test: adhesion stability under blebbistatin, NIH3T3 cells; type: cell-based, mouse; details: blebbistatin 50 µM, 60 min; n = 64 (WT), 49 (L702E), 62 (ΔPTB), 71 (Cterm) cells
Method: as §1, §2

NIH3T3 cells [6] = test: tensin3 condensate formation, NIH3T3 cells; type: cell-based, mouse
Method: (§3) To establish a correlation between tensin3 expression and condensation formation, a maximum intensity Z-projection was performed on Z-stack images of NIH3T3 cells (step depth 0.2 μm). The integrated fluorescence intensity was measured by normalizing the mean pixel intensity of each cell to the average of all values in cells expressing mCh-TNS3. To measure the condensate coverage in NIH3T3 cells, the images were background-subtracted (rolling ball) and then thresholded. This was followed by the Analyse Particles function in FIJI/ImageJ to select round condensate structures (circularity 0.7–1.0) ([Bussi et al., 2023]; [Dumelie et al., 2024]) with a size larger than 0.1 μm^2. The same settings were applied to quantify the number of condensates in NIH3T3 and HFF cells.
The percentage of NIH3T3 cells transfected with mCh-TNS3 that form phase-separated condensates was quantified manually in images (610 × 499 μm) acquired with a 20× objective. To quantify the mean radius (R) of the condensates, the area covered by the condensates was divided by the number of condensates for each cell to obtain the mean size (A) of the condensates, followed by the formula of R = √(A/3.14).

NIH3T3 cells [7] = test: condensates on soft vs stiff PDMS, NIH3T3 cells; type: cell-based, mouse; details: 1.5 kPa vs 28 kPa FN-coated PDMS, overnight
Method: Imaging dishes equipped with 40 µm-thick PDMS substrates (1.5 and 28 kPa) were purchased from ibidi. PDMS dishes were coated with 30 μg/ml FN for 1 h, followed by three washes with PBS. Dishes were incubated with DMEM for 10 min to equilibrate before cells were plated and incubated overnight at 37°C.
as §3

B1: TNS3-L702E: tensin3 carrying the L702E point mutation that blocks the interaction with talin (protein, UniProt Q68CZ2 1-1445, looked up, variant L702E)
Tensin-3: MEEGHGLDLTYITERIIAVSFPAGCSEESYLHNLQEVTRMLKSKHGDNYLVLNLSEKRYDLTKLNPKIMDVGWPELHAPPLDKMCTICKAQESWLNSNLQHVVVIHCRGGKGRIGVVISSYMHFTNVSASADQALDRFAMKKFYDDKVSALMQPSQKRYVQFLSGLLSGSVKMNASPLFLHFVILHGTPNFDTGGVCRPFLKLYQAMQPVYTSGIYNVGPENPSRICIVIEPAQLLKGDVMVKCYHKKYRSATRDVIFRLQFHTGAVQGYGLVFGKEDLDNASKDDRFPDYGKVELVFSATPEKIQGSEHLYNDHGVIVDYNTTDPLIRWDSYENLSADGEVLHTQGPVDGSLYAKVRKKSSSDPGIPGGPQAIPATNSPDHSDHTLSVSSDSGHSTASARTDKTEERLAPGTRRGLSAQEKAELDQLLSGFGLEDPGSSLKEMTDARSKYSGTRHVVPAQVHVNGDAALKDRETDILDDEMPHHDLHSVDSLGTLSSSEGPQSAHLGPFTCHKSSQNSLLSDGFGSNVGEDPQGTLVPDLGLGMDGPYERERTFGSREPKQPQPLLRKPSVSAQMQAYGQSSYSTQTWVRQQQMVVAHQYSFAPDGEARLVSRCPADNPGLVQAQPRVPLTPTRGTSSRVAVQRGVGSGPHPPDTQQPSPSKAFKPRFPGDQVVNGAGPELSTGPSPGSPTLDIDQSIEQENRLILELDPTFEPIPTHMNALGSQANGSVSPDSVGGGLRASSRLPDTGEGPSRATGRQGSSAEQPLGGRLRKLSLGQYDNDAGGQLPFSKCAWGKAGVDYAPNLPPFPSPADVKETMTPGYPQDLDIIDGRILSSKESMCSTPAFPVSPETPYVKTALRHPPFSPPEPPLSSPASQHKGGREPRSCPETLTHAVGMSESPIGPKSTMLRADASSTPSFQQAFASSCTISSNGPGQRRESSSSAERQWVESSPKPMVSLLGSGRPTGSPLSAEFSGTRKDSPVLSCFPPSELQAPFHSHELSLAEPPDSLAPPSSQAFLGFGTAPVGSGLPPEEDLGALLANSHGASPTPSIPLTATGAADNGFLSHNFLTVAPGHSSHHSPGLQGQGVTLPGQPPLPEKKRASEGDRSLGSVSPSSSGFSSPHSGSTISIPFPNVLPDFSKASEAASPLPDSPGDKLVIVKFVQDTSKFWYKADISREQAIAMLKDKEPGSFIVRDSHSFRGAYGLAMKVATPPPSVLQLNKKAGDLANELVRHFLIECTPKGVRLKGCSNEPYFGSLTALVCQHSITPLALPCKLLIPERDPLEEIAESSPQTAANSAAELLKQGAACNVWYLNSVEMESLTGHQAIQKALSITLVQEPPPVSTVVHFKVSAQGITLTDNQRKLFFRRHYPVNSVIFCALDPQDRKWIKDGPSSKVFGFVARKQGSATDNVCHLFAEHDPEQPASAIVNFVSKVMIGSPKKV
modifications: mCherry or GFP tag
U2OS TNS3KO cells [1]
  reduction in centrally located α5 integrin-positive FBs: 55%
TNS3KO cells
  fewer FN fibrils: over 70%
U2OS TNS3KO cells [2]
  formation of vinculin-positive FA: no difference
[3]
  reduction of adhesion-promoting effect (β1 integrin-positive adhesions): 57%
U2OS TNS3KO cells [4]
  subcellular localization of construct under blebbistatin: almost exclusively found in the LLPS condensates in the cytoplasm
NIH3T3 cells [5]
  construct-positive adhesions after blebbistatin: mostly disappear
NIH3T3 cells [6]; n = 181 cells (WT), 168 cells (L702E)
  Spearman's r, expression level vs condensate coverage: 0.9013
NIH3T3 cells [6]; vs TNS3-WT, condensates >0.1 μm^2, circularity 0.7–1, n = 68 (WT) and 100 (L702E) cells
  fold increase in number of condensates: 2.2 fold
NIH3T3 cells [6]; vs TNS3-WT, mean radius
  condensate size: larger
NIH3T3 cells [7]
  condensates on soft vs stiff substrate: no difference in condensate formation on soft versus stiff substrates
